This data set has as its target T1, Lck phosphopeptide (ARLIEDNEpYTAAREG).
T1 chain: ARLIEDNEYTAAREG

B1: full length Hemagglutinin (HA) tagged LYP having W620 (protein)
chain: MDQREILQKFLDEAQSKKITKEEFANEFLKLKRQSTKYKADKTYPTTVAEKPKNIKKNRYKDILPYDYSRVELSLITSDEDSSYINANFIKGVYGPKAYIATQGPLSTTLLDFWRMIWEYSVLIIVMACMEYEMGKKKCERYWAEPGEMQLEFGPFSVSCEAEKRKSDYIIRTLKVKFNSETRTIYQFHYKNWPDHDVPSSIDPILELIWDVRCYQEDDSVPICIHCSAGCGRTGVICAIDYTWMLLKDGIIPENFSVFSLIREMRTQRPSLVQTQEQYELVYNAVLELFKRQMDVIRDKHSGTESQAKHCIPEKNHTLQADSYSPNLPKSTTKAAKMMNQQRTKMEIKESSSFDFRTSEISAKEELVLHPAKSSTSFDFLELNYSFDKNADTTMKWQTKAFPIVGEPLQKHQSLDLGSLLFEGCSNSKPVNAAGRYFNSKVPITRTKSTPFELIQQRETKEVDSKENFSYLESQPHDSCFVEMQAQKVMHVSSAELNYSLPYDSKHQIRNASNVKHHDSSALGVYSYIPLVENPYFSSWPPSGTSSKMSLDLPEKQDGTVFPSSLLPTSSTSLFSYYNSHDSLSLNSPTNISSLLNQESAVLATAPRIDDEIPPPLPVWTPESFIVVEEAGEFSPNVPKSLSSAVKVKIGTSLEWGGTSEPKKFDDSVILRPSKSVKLRSPKSELHQDRSSPPPPLPERTLESFFLADEDCMQAQSIETYSTSYPDTMENSTSSKQTLKTPGKSFTRSKSLKILRNMKKSICNSCPPNKPAESVQSNNSSSFLNFGFANRFSKPKGPRNPPPTWNI
In the case of B1, the “Dephosphorylation of an Lck phosphopeptide by immunoprecipitated HA-tagged LYP; specific activity relative to LYP*R620” value is “LYP*W620 displayed a 57.2% (±9.8%, n=5) higher specific activity when corrected for amount of protein”.

These data come from patent publication US20080199514A1 (BURNHAM INSTITUTE, published 2008).
